Assay results as given in US8809287B2, “Compositions and methods for altering Wnt autocrine signaling” (Icahn School of Medicine at Mount Sinai, priority 2004, dated 2014).

Assays:
[1] = system: cyclin D1; assay: Northern blot of cyclin D1 in MDAMB157 cells; type: cell-based, human; conditions: stable expression (data not shown)
Procedure: Alterations in the expression of a number of genes identified as targets of canonical Wnt signaling have been reported, although it should be noted that there is variability among Wnt target genes in different cell systems (Giles et al., (2003). Biochim. Biophys. Acta 1653:1-24). To investigate the effects of FRP1 and DKK1 inhibition on gene expression in MDAMB157 breast tumor cells, Northern blot analysis was performed on representative Wnt transcriptional targets, including Myc (He et al., (1998) Science 281:1509-1512), the LEF-1 transcription factor (Filali et al., (2002) J. Biol. Chem. 277:33398-33410) and the dominant negative helix-loop-helix transcriptional regulator, Id2 (Rockman et al., (2001) J. Biol. Chem. 276:45113-45119).
Total RNAs from MDAMB157 cells exogenously expressing vector alone, FRP1, or DKK1 were extracted using Triazol (Invitrogen), separated by agarose gel electrophoresis (1% agarose gel) and transferred to a nylon membrane (Hybond, Pharmacia). Probes were labeled by the Random Prime Labelling System method (Amersham Biosciences), and hybridization was performed overnight utilizing the Hybrisol I solution (Serologicals Corporation) according to the manufacturer's instructions. Normalization was performed utilizing a commercial human GADPH control probe (BD Biosciences Clontech). Probes were labelled with α-^32P-dCTP. […]

[2] = system: cyclin D1; assay: Northern blot of Cyclin D1 in HCT116 clone; type: cell-based, human; conditions: HCT116 wild type allele-containing clone
Text: We next assessed the effects of FRP1 inhibition on the expression of Id2, Cyclin D1 and Myc, known targets of Wnt/β-catenin in colorectal cancer (Rockman et al. (2001) J. Biol. Chem. 276:45113-45119; Tetsu and McCormick (1999) Nature 398:422-426; He et al. (1998) Science 281:1509-1512). RNAs were extracted from HCT116 parental cells, and either wild type or mutant β-catenin allele containing clones transfected with either vector control or FRP1-HA using Triazol (Invitrogen). The RNAs were separated by (1%) agarose gel electrophoresis and transferred to a nylon membrane (Hybond®, Pharmacia). Probes were labeled by the Random Prime Labelling System method (Amersham Biosciences), and hybridization was performed overnight utilizing the Hybrisol I solution (Serologicals Corporation) according to the manufacturer's instructions. Normalization was performed utilizing a commercial human GADPH control probe (BD Biosciences Clontech).

[3] = system: uncomplexed β-catenin; assay: Uncomplexed β-catenin in HCC38 and other positive breast cancer cell lines; type: cell-based, human; conditions: HCC38 and several positive breast cancer lines; DKK1-containing conditioned media for two hours
Procedure: (§1) β-catenin levels were assessed using the GST-E-cadherin binding assay, which has been previously described (Bafico et al., (1998) Oncogene 16:2819-2825). Briefly, bacterially expressed GST-E-cadherin was purified with glutathione-Sepharose beads and incubated with 1 mg of each cell lysate. The GST-E-cadherin/[…]-catenin complex bound to the beads was recovered by centrifugation and analyzed by SDS-PAGE followed by immunoblotting. The uncomplexed β-catenin was detected using a monoclonal antibody to β-catenin (Transduction Laboratories). Unphosphorylated β-catenin was detected with a monoclonal antibody specific for β-catenin dephosphorylated at residues 27-37 (Alexis, Läufelfingen, Switzerland). FRP1-HA and DKK1-HA were detected with an anti-HA monoclonal antibody (Hybridoma Center, Mount Sinai School of Medicine, New York).
In addition, we have analyzed about 20 additional human breast cancer cell lines for increased levels of uncomplexed β-catenin. Analysis of uncomplexed β-catenin levels was performed as described in Example 3 utilizing 1 mg of total cell lysate. A monoclonal antibody to β-catenin (Transduction Laboratories) was utilized for immunoblotting. We found increased levels of uncomplexed β-catenin in 6 of these cell lines (FIG. 3A, lanes 1, 3, 4 and data not shown). We have also analyzed DKK inhibition of autocrine Wnt signaling in HCC38 breast cancer cells. […]

[4] = system: uncomplexed β-catenin; assay: GST-E-cadherin binding assay / immunoblot, NIH3T3 cells expressing β-catenin under Tet promoter; type: cell-based, mouse; conditions: β-catenin under tet regulatable promoter, purified DKK1 (10 nM)
Procedure: as §1, with “York). […]” for “York).”

B1: FRP1: human secreted Frizzled Related Protein 1, Wnt antagonist; expressed from pBabe-derived retrovirus with carboxy-terminal HA tag (protein, UniProt Q8N474 32-314, looked up)
Secreted frizzled-related …: SEYDYVSFQSDIGPYQSGRFYTKPPQCVDIPADLRLCHNVGYKKMVLPNLLEHETMAEVKQQASSWVPLLNKNCHAGTQVFLCSLFAPVCLDRPIYPCRWLCEAVRDSCEPVMQFFGFYWPEMLKCDKFPEGDVCIAMTPPNATEASKPQGTTVCPPCDNELKSEAIIEHLCASEFALRMKIKEVKKENGDKKIVPKKKKPLKLGPIKKKDLKKLVLYLKNGADCPCHQLDNLSHHFLIMGRKVKSQYLLTAIHKWDKKNKEFKNFMKKMKNHECPTFQSVFK
modifications: C-terminal HA tag
notes: human secreted Frizzled Related Protein 1, Wnt antagonist; expressed from pBabe-derived retrovirus with carboxy-terminal HA tag
levels of cyclin D1 [1]: did not observe significant changes | expression of Cyclin D1 [2]: dramatically inhibited

B2: DKK1: Dickkopf-1, secreted Wnt antagonist protein that binds Wnt co-receptor LRP6; used purified, in conditioned media or retrovirally expressed with HA tag (protein, UniProt O94907 32-266, looked up)
Dickkopf-related protein 1: TLNSVLNSNAIKNLPPPLGGAAGHPGSAVSAAPGILYPGGNKYQTIDNYQPYPCAEDEECGTDEYCASPTRGGDAGVQICLACRKRRKRCMRHAMCCPGNYCKNGICVSSDQNHFRGEIEETITESFGNDHSTLDGYSRRTTLSSKMYHTKGQEGSVCLRSSDCASGLCCARHFWSKICKPVLKEGQVCTKHRRKGSHGLEIFQRCYCGEGLSCRIQKDHHQASNSSRLHTCQRH
modifications: HA tag in some uses
uncomplexed β-catenin levels [3]: striking reduction | uncomplexed β-catenin induced by exogenous β-catenin [4]: no effect | levels of cyclin D1 [1]: did not observe significant changes
